Article PMC3351694 (Virology, 2012)
Where two headings read alike, the source gives them in different places.

Legend:
Test in all cases: SEC
[1] = molecular target: T1, bacteriophage P22 coat protein (bacteriophage P22, UniProt P26747 1-430)
[2] = molecular target: T1, bacteriophage P22 coat protein; remark: listed apart in the source
[3] = molecular target: T1, bacteriophage P22 coat protein; remark: listed apart in the source

T1 sequence (P26747 whole entry): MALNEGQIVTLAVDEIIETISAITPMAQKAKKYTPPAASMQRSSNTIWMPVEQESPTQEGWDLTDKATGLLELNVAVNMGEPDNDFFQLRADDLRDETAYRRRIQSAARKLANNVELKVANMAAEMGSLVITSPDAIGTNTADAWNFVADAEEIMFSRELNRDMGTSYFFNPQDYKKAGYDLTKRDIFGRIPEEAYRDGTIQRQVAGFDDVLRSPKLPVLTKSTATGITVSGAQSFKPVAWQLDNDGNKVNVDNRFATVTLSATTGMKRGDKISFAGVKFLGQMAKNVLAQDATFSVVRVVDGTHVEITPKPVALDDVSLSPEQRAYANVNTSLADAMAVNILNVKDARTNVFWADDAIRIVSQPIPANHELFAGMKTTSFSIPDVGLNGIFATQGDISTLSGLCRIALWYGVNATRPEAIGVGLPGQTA

B1: bacteriophage P22 scaffolding protein (natural protein, UniProt P26748 1-303, looked up)
chain: MEPTTEIQATEDLTLSGDHAAASADSLVVDNANDNAGQEEGFEIVLKDDETAPKQDPAKNAEFARRRIERKRQRELEQQMEAVKRGELPESLRVNPDLPPQPDINAYLSEEGLAKYDYDNSRALAAFNAANTEWLMKAQDARSNAVAEQGRKTQEFTQQSAQYVEAARKHYDAAEKLNIPDYQEKEDAFMQLVPPAVGADIMRLFPEKSAALMYHLGANPEKARQLLAMDGQSALIELTRLSERLTLKPRGKQISSAPPADQPITGDVSAANKDAIRKQMDAAASKGDVETYRKLKAKLKGIR
1/KS (dissociation constant of scaffolding protein for PC), Snum 300 [1]: 0.77 ± 0.7 µM | 1/KS (dissociation constant of scaffolding protein for PC), Snum 360 [1]: 1.29 ± 0.95 µM | 1/KS (dissociation constant of scaffolding protein for PC), Snum 420 [1]: 1.88 ± 1.25 µM | stoichiometry N [2]: ~360 scaffolding protein sites per PC | midpoint of the binding fit (K's, input S/C ratio) [3]: 0.88 input S/C molar ratio | stoichiometry N [3]: 294 ± 33 scaffolding proteins per PC
